Patent US20180128830A1, “DETECTION OF HUMAN CYTOMEGALOVIRUS IN BREAST CANCER” (priority 2015, published 2018)

How the values were obtained:
IL-10R = target: T1, IL-10R (Homo sapiens, UniProt Q13651); assay: IL-10R immunofluorescence microscopy; format: cell-based; details: MDA-MB-231 cells, 100 ng/ml, 15 min
T1 construct: uninfected tumor cells express the IL-10R complex; endogenous in cells; host or cells: MDA-MB-231 human breast cancer cells
T1 sequence (Q13651 22-578): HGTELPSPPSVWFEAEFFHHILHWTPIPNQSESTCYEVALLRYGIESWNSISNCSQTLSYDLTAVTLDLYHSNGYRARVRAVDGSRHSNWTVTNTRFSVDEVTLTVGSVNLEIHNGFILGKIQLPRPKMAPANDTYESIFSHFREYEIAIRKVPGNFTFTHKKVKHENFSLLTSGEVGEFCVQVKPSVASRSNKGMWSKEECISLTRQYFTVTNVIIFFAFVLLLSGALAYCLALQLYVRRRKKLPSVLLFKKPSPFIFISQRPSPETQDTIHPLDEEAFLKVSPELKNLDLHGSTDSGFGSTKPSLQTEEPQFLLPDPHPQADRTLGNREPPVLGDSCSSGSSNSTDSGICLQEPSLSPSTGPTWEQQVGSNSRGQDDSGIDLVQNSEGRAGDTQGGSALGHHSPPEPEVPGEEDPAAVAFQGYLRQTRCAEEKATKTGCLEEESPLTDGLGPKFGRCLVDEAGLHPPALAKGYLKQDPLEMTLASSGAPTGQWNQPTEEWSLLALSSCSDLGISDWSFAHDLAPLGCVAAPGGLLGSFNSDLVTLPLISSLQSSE
T1 sequence (Q08334 20-325 partner): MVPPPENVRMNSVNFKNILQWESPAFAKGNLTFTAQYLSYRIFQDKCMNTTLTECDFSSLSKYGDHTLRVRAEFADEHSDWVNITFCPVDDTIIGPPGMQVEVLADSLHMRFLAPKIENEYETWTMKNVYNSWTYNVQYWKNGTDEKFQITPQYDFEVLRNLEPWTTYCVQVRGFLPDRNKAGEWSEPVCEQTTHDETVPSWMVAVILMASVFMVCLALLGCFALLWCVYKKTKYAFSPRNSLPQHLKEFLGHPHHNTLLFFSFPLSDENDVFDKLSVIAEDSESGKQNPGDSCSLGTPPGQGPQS
Procedure: MDA-MB-231 cells were seeded into 6-well dishes containing FBS-coated glass coverslips at a density of 2×10^5 cells per well and then incubated for 48 hrs at 37° C. Cell monolayers were washed with PBS, fixed with 4% paraformaldehyde, then permeabilized with 0.2% (w/v) Triton X-100 followed by treatment with ice cold 50% methanol-50% acetone for 30 min. Cells were then blocked with PBS+10% FBS for 1 hr at 37° C. and stained with anti-IL-10Rα antibody (Santa Cruz Biotechnology) at a 1:100 dilution for 1 hr at 37° C. Following three PBS washes, the coverslips were incubated with TRITC-conjugated secondary antibody for 1 hr, washed again, and then mounted on a glass slide using Prolong Gold anti-fade reagent with DAPI (Life Technologies, Grand Island, N.Y.). HFF cells were also grown on coverslips as described, mock- or virus-infected, and stained with anti-IE1 (EMD Millipore) followed by FITC-conjugated secondary antibody. Images were acquired using a Zeiss LSM700 laser scanning confocal microscope using Zen Black software (Carl Zeiss, Inc., Oberkochen, Germany).

MMP-3 = MMP-3 ELISA on cell lysates; format: cell-based, human; details: 10 ng/ml, 48 hours
Procedure: DuoSet ELISA kits (R&D Systems) were used to quantify uPAR, PAI-1, and MMP-3. For uPAR and PAI-1 measurement, MDA cells were seeded in triplicate in 96-well plate at 5.0×10^4 cell/mL density with complete L-15 media and treated with 10 ng/mL of either cmvIL-10 or hIL-10 for the indicated times and supernatants were collected daily. The ELISA was carried out on supernatants according to manufacturer's instructions using and following the addition of substrate and stop solution, absorbance of the plate was measured at 450 nm using a Dynex Opsys MR microplate reader. Sample concentrations were interpolated from a standard curve using linear regression analysis. For cell-associated MMP-3, MDA cells were seeded in 96-well plates and treated with cmvIL-10 as above. Cells were treated with cell lysis buffer (150 mM NaCl, 20 mM HEPES, 0.5% Triton-X-100, 1.0 mM NaOV4, 1.0 mM EDTA, 0.1% NaN3) supplemented with 1× protease inhibitors (Calbiochem, EMD Chemicals, San Diego Calif.) and were collected daily for the indicated time points. The lysates were evaluated for MMP-3 according to the manufacturer's instructions (R&D Systems).

MTSS1 = MTSS1 immunoblotting; format: cell-based, human; details: 10 ng/mL, beyond 24 hours
Procedure: Confluent T-75 flasks of MDA-MB-231 cells were treated with 10 ng/mL cmvIL-10 (R&D systems) for the indicated times, then scraped and harvested into cell lysis buffer (150 mM NaCl, 20 mM HEPES, 0.5% Triton-X-100, 1.0 mM NaOV4, 1.0 mM EDTA, 0.1% NaN3) containing 1× protease inhibitors (Calbiochem). Cell lysates were clarified via centrifugation, heated at 70° C. for 10 min in reducing buffer, and the proteins separated on a 4-12% Tris-Base SDS-PAGE gel (Life Technologies, Grand Island, N.Y.). After transfer to nitrocellulose, the membrane was incubated in blocking solution (5% milk+TBS) for 1 hr at room and then probed with primary antibody: 1:1000 dilution for MMP-3 or MTSS-1 antibodies (Santa Cruz), or MAPK antiserum (Cell Signaling Tech, Danvers, Mass.), in blocking solution overnight, oscillating on a platform rocker at 4.0° C. After three washes, the membranes were incubated with a 1:2000 dilution of appropriate AP-conjugated secondary antibody on a platform rocker at room temperature for 1 hr. Protein bands were detected using western blue stabilized AP substrate (Promega, Madison, Wis.). For zymography, cell lysates were denatured in SDS buffer under non-reducing conditions without heat, and run on a 4-16% Zymogram gel using Tris-Glycine SDS running buffer according to manufacturer's instructions. […]

B1: cmvIL-10 (protein)
chain: ATTTTIKNTKPQCRPEDYATRLQDLRVTFHRVKPTLQREDDYSVWLDGTVVKGCWGCSVMDWLLRRYLEIVFPAGDHVYPGLKTELHSMRSTLESIYKDMRQCPLLGCGDKSVISRLSQEAERKSDNGTRKGLSELDTLFSRLEEYLHSRK
IL-10R distribution after treatment (IL-10R): distinct redistribution of IL-10R | cell-associated MMP-3 (cell lysates) (MMP-3): increased significantly | MTSS1 protein (82 kD band) (MTSS1): significant decrease in MTSS1 expression
